Results as given in the supplement of paper PMC6757056.
± gives the standard deviation of the averaged measurements.

B1: library; a variant is named by its letters at N, in order (parent)
chain: GCUGUCACCGGUGUAUUACCCUAGUGGUCGACCGGUCUGAUGAGUCUNNNNNNAGACGAAACAGC

Experiments:
[1] = variants of: B1; test: normalized RNA/DNA level with ligand (relative to sTRSVctl = 100) (log10 (% of sTRSVctl)); ligand: hypoxanthine (xanthine aptamer); higher = less ribozyme self-cleavage, higher mRNA level; details: ligand concentration (+) RNA-Seq: 5 mM, HEK293T, reporter: mCherry (pCS4076), ligand present: yes
How it was run: (§1)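 For each 6-well well, 4 µg of library plasmid encoding mCherry-linked ribozyme switches, or eGFP-linked ones in some ligand experiments, was transfected into HEK293T. Any ligand was added 1 h before transfection, and RNA was extracted with EDTA 72 h after it, then reverse-transcribed, amplified, barcoded and sequenced. RNA level was obtained by dividing RNA reads by DNA reads, normalizing to a spiked-in non-cleaving sequence or to the top sequences, then scaling and log-transforming. The top set was 25 sequences, scaling was ×100 with log10, and ≥100 DNA reads were required.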

[2] = variants of: B1; test: normalized RNA/DNA level without ligand (relative to sTRSVctl = 100) (log10 (% of sTRSVctl)); ligand: hypoxanthine (xanthine aptamer); higher = less ribozyme self-cleavage, higher mRNA level; details: HEK293T, reporter: mCherry (pCS4076), ligand present: no
How it was run: as §1

Variant | normalized RNA/DNA level with ligand (log10) [1] | normalized RNA/DNA level without ligand (log10) [2]
GCUGUCACCGGUGUAUUACCCUAGUGGUCGACCGGUCUGAUGAGUCUUCCGUCAGACGAAACAGC [UCCGUC] | 1.97 ± 0.059 | 2.03 ± 0.042
GCUGUCACCGGUGUAUUACCCUAGUGGUCGACCGGUCUGAUGAGUCUUCCGUAAGACGAAACAGC [UCCGUA] | 1.956 ± 0.0079 | 1.7408 ± 0.0014
GCUGUCACCGGUGUAUUACCCUAGUGGUCGACCGGUCUGAUGAGUCUGCCGGCAGACGAAACAGC [GCCGGC] | 1.96 ± 0.066 | 1.762 ± 0.015
GCUGUCACCGGUGUAUUACCCUAGUGGUCGACCGGUCUGAUGAGUCUGCCGGAAGACGAAACAGC [GCCGGA] | 1.95 ± 0.043 | 1.93 ± 0.065
GCUGUCACCGGUGUAUUACCCUAGUGGUCGACCGGUCUGAUGAGUCUGCCGGGAGACGAAACAGC [GCCGGG] | 1.94 ± 0.023 | 1.87 ± 0.06
GCUGUCACCGGUGUAUUACCCUAGUGGUCGACCGGUCUGAUGAGUCUGCCGUGAGACGAAACAGC [GCCGUG] | 1.91 ± 0.025 | 1.48 ± 0.036
GCUGUCACCGGUGUAUUACCCUAGUGGUCGACCGGUCUGAUGAGUCUGCCGUCAGACGAAACAGC [GCCGUC] | 1.94 ± 0.096 | 1.91 ± 0.074
GCUGUCACCGGUGUAUUACCCUAGUGGUCGACCGGUCUGAUGAGUCUGCCGUAAGACGAAACAGC [GCCGUA] | 1.965 ± 0.011 | 1.84 ± 0.061
GCUGUCACCGGUGUAUUACCCUAGUGGUCGACCGGUCUGAUGAGUCUACCGUGAGACGAAACAGC [ACCGUG] | 1.8625 ± 0.00016 | 1.45 ± 0.051
GCUGUCACCGGUGUAUUACCCUAGUGGUCGACCGGUCUGAUGAGUCUACCGUCAGACGAAACAGC [ACCGUC] | 1.982 ± 0.0058 | 2 ± 0.026
GCUGUCACCGGUGUAUUACCCUAGUGGUCGACCGGUCUGAUGAGUCUACCGUUAGACGAAACAGC [ACCGUU] | 1.91 ± 0.06 | 1.835 ± 0.011
GCUGUCACCGGUGUAUUACCCUAGUGGUCGACCGGUCUGAUGAGUCUUCCGGUAGACGAAACAGC [UCCGGU] | 1.98 ± 0.037 | 1.83 ± 0.054
GCUGUCACCGGUGUAUUACCCUAGUGGUCGACCGGUCUGAUGAGUCUUCCGGCAGACGAAACAGC [UCCGGC] | 2.019 ± 0.0041 | 1.85 ± 0.056
GCUGUCACCGGUGUAUUACCCUAGUGGUCGACCGGUCUGAUGAGUCUCCCGGUAGACGAAACAGC [CCCGGU] | 2 ± 0.069 | 1.92 ± 0.071
GCUGUCACCGGUGUAUUACCCUAGUGGUCGACCGGUCUGAUGAGUCUCCCGGCAGACGAAACAGC [CCCGGC] | 2 ± 0.041 | 1.859 ± 0.0099
GCUGUCACCGGUGUAUUACCCUAGUGGUCGACCGGUCUGAUGAGUCUCCCGAUAGACGAAACAGC [CCCGAU] | 1.97 ± 0.033 | 1.8 ± 0.029
GCUGUCACCGGUGUAUUACCCUAGUGGUCGACCGGUCUGAUGAGUCUUCCGCAAGACGAAACAGC [UCCGCA] | 1.9294 ± 0.00025 | 1.807 ± 0.014
GCUGUCACCGGUGUAUUACCCUAGUGGUCGACCGGUCUGAUGAGUCUUCCGCUAGACGAAACAGC [UCCGCU] | 1.94 ± 0.055 | 1.944 ± 0.0031
GCUGUCACCGGUGUAUUACCCUAGUGGUCGACCGGUCUGAUGAGUCUUCCGCCAGACGAAACAGC [UCCGCC] | 1.992 ± 0.013 | 1.773 ± 0.015
GCUGUCACCGGUGUAUUACCCUAGUGGUCGACCGGUCUGAUGAGUCUACCGAGAGACGAAACAGC [ACCGAG] | 1.76 ± 0.057 | 1.301 ± 0.0053
GCUGUCACCGGUGUAUUACCCUAGUGGUCGACCGGUCUGAUGAGUCUUCCGAUAGACGAAACAGC [UCCGAU] | 1.965 ± 0.013 | 1.774 ± 0.0086

Variant | normalized RNA/DNA level with ligand (log10) [1] | normalized RNA/DNA level without ligand (log10) [2]
GCUGUCACCGGUGUAUUACCCUAGUGGUCGACCGGUCUGAUGAGUCUCCCGUGAGACGAAACAGC [CCCGUG] | 1.97 ± 0.026 | 1.812 ± 0.0064
GCUGUCACCGGUGUAUUACCCUAGUGGUCGACCGGUCUGAUGAGUCUCCCGUAAGACGAAACAGC [CCCGUA] | 1.92 ± 0.015 | 1.85 ± 0.035
GCUGUCACCGGUGUAUUACCCUAGUGGUCGACCGGUCUGAUGAGUCUCCCGUCAGACGAAACAGC [CCCGUC] | 2.027 ± 0.018 | 2.021 ± 0.019
GCUGUCACCGGUGUAUUACCCUAGUGGUCGACCGGUCUGAUGAGUCUCCCGUUAGACGAAACAGC [CCCGUU] | 1.93 ± 0.056 | 1.9 ± 0.024
GCUGUCACCGGUGUAUUACCCUAGUGGUCGACCGGUCUGAUGAGUCUACCUAAAGACGAAACAGC [ACCUAA] | 1.942 ± 0.012 | 1.87 ± 0.028
GCUGUCACCGGUGUAUUACCCUAGUGGUCGACCGGUCUGAUGAGUCUACCGGCAGACGAAACAGC [ACCGGC] | 2.001 ± 0.012 | 1.96 ± 0.073
GCUGUCACCGGUGUAUUACCCUAGUGGUCGACCGGUCUGAUGAGUCUACCGGAAGACGAAACAGC [ACCGGA] | 1.94 ± 0.039 | 1.903 ± 0.014
GCUGUCACCGGUGUAUUACCCUAGUGGUCGACCGGUCUGAUGAGUCUACCGGUAGACGAAACAGC [ACCGGU] | 1.99 ± 0.076 | 1.844 ± 0.0038
GCUGUCACCGGUGUAUUACCCUAGUGGUCGACCGGUCUGAUGAGUCUGCCGCCAGACGAAACAGC [GCCGCC] | 1.99 ± 0.068 | 1.81 ± 0.1
GCUGUCACCGGUGUAUUACCCUAGUGGUCGACCGGUCUGAUGAGUCUGCCGCUAGACGAAACAGC [GCCGCU] | 1.98 ± 0.05 | 1.95 ± 0.046
GCUGUCACCGGUGUAUUACCCUAGUGGUCGACCGGUCUGAUGAGUCUUCCUAGAGACGAAACAGC [UCCUAG] | 1.91 ± 0.066 | 1.65 ± 0.038
GCUGUCACCGGUGUAUUACCCUAGUGGUCGACCGGUCUGAUGAGUCUUCCUAAAGACGAAACAGC [UCCUAA] | 1.956 ± 0.019 | 1.807 ± 0.017
GCUGUCACCGGUGUAUUACCCUAGUGGUCGACCGGUCUGAUGAGUCUACCGCUAGACGAAACAGC [ACCGCU] | 1.925 ± 0.0096 | 1.89 ± 0.041
GCUGUCACCGGUGUAUUACCCUAGUGGUCGACCGGUCUGAUGAGUCUACCGCAAGACGAAACAGC [ACCGCA] | 1.93 ± 0.082 | 1.845 ± 0.017
GCUGUCACCGGUGUAUUACCCUAGUGGUCGACCGGUCUGAUGAGUCUCCCUAGAGACGAAACAGC [CCCUAG] | 1.89 ± 0.025 | 1.77 ± 0.12
GCUGUCACCGGUGUAUUACCCUAGUGGUCGACCGGUCUGAUGAGUCUCCCUAUAGACGAAACAGC [CCCUAU] | 1.971 ± 0.0087 | 1.94 ± 0.025
GCUGUCACCGGUGUAUUACCCUAGUGGUCGACCGGUCUGAUGAGUCUCCCUACAGACGAAACAGC [CCCUAC] | 1.973 ± 0.018 | 1.9 ± 0.11
GCUGUCACCGGUGUAUUACCCUAGUGGUCGACCGGUCUGAUGAGUCUCCCGCUAGACGAAACAGC [CCCGCU] | 1.94 ± 0.056 | 1.99 ± 0.03
GCUGUCACCGGUGUAUUACCCUAGUGGUCGACCGGUCUGAUGAGUCUCCCGCGAGACGAAACAGC [CCCGCG] | 1.9 ± 0.029 | 1.84 ± 0.019
GCUGUCACCGGUGUAUUACCCUAGUGGUCGACCGGUCUGAUGAGUCUGCCUAUAGACGAAACAGC [GCCUAU] | 1.944 ± 0.013 | 1.852 ± 0.011
GCUGUCACCGGUGUAUUACCCUAGUGGUCGACCGGUCUGAUGAGUCUGCCUACAGACGAAACAGC [GCCUAC] | 1.954 ± 0.0075 | 1.757 ± 0.0057
